What follows are substances tested against human FcRn protein (human) (UniProt P55899) (assay: SPR, Ab on Protein L chip, hFcRn in flow, pH 6.0).

| Kd | koff | kon | Substance |
| --- | --- | --- | --- |
| 0.000109 µM | 0.000201 s⁻¹ | 1.84e+06 M⁻¹ s⁻¹ | hIgG1 M252Y/N286E/V308P/M428I/N434Y, O4 VH with Ab6 light chain (antibody) |
| 0.00548 µM | 0.00756 s⁻¹ | 1.38e+06 M⁻¹ s⁻¹ | hIgG1 M252Y/N434Y/Y436V, O4 VH with Ab6 light chain (antibody) |
| 0.0215 µM | 0.0139 s⁻¹ | 648000 M⁻¹ s⁻¹ | hIgG1 M252Y/S254T/T256E/V308P, O4 VH with Ab6 light chain (antibody) |
| 0.000471 µM | 0.000795 s⁻¹ | 1.69e+06 M⁻¹ s⁻¹ | hIgG1 M252Y/S254T/T256E/V308P/N434W, O4 VH with Ab6 light chain (antibody) |
| 0.0317 µM | 0.0177 s⁻¹ | 557000 M⁻¹ s⁻¹ | hIgG1 M252Y/S254T/V308P, O4 VH with Ab6 light chain (antibody) |
| 0.00131 µM | 0.00143 s⁻¹ |  | hIgG1 M252Y/T256K/V308P/N434W, O4 VH with Ab6 light chain (antibody) |
| 0.0374 µM | 0.0279 s⁻¹ | 745000 M⁻¹ s⁻¹ | hIgG1 M252Y/V308P, O4 VH with Ab6 light chain (antibody) |

Each substance was assayed against human FcRn protein (human) (UniProt P55899) (assay: SPR, Ab on Protein L chip, hFcRn in flow, pH 7.4).

| Kd | koff | kon | Substance |
| --- | --- | --- | --- |
| 1.03 µM | 1.03 s⁻¹ | 1e+06 M⁻¹ s⁻¹ | hIgG1 M252Y/N286E/V308P/M428I/N434Y, O4 VH with Ab6 light chain (antibody) |
| 25.7 µM | 1.14 s⁻¹ | 44300 M⁻¹ s⁻¹ | hIgG1 M252Y/N434Y/Y436V, O4 VH with Ab6 light chain (antibody) |
| 0.975 µM | 1.96 s⁻¹ | 2.01e+06 M⁻¹ s⁻¹ | hIgG1 M252Y/S254T/T256E/V308P, O4 VH with Ab6 light chain (antibody) |
| 0.122 µM | 0.00101 s⁻¹ | 8320 M⁻¹ s⁻¹ | hIgG1 M252Y/S254T/T256E/V308P/N434W, O4 VH with Ab6 light chain (antibody) |
| 76.7 µM | 1.13 s⁻¹ | 14700 M⁻¹ s⁻¹ | hIgG1 M252Y/S254T/V308P, O4 VH with Ab6 light chain (antibody) |
| 0.239 µM |  |  | hIgG1 M252Y/T256K/V308P/N434W, O4 VH with Ab6 light chain (antibody) |
| 0.0518 µM | 0.00221 s⁻¹ | 42600 M⁻¹ s⁻¹ | hIgG1 M252Y/V308P, O4 VH with Ab6 light chain (antibody) |

What follows are substances tested against human FcRn and human B2M (beta-2-microglobulin) expressed on MDCK II cells (human) (UniProt P55899) (assay: cell-based or functional assay).

| Substance | Transcytosis Normalized to IAHA at pH 6.0 (ratio to IAHA) |
| --- | --- |
| anti-O4 hIgG1 M252Y/T256A/V308P/N434W (antibody) | 190 |
| anti-O4 hIgG1 M252Y/T256A/V308P/N434Y (antibody) | 193 |
| anti-O4 hIgG1 M252Y/T256D/V308P/N434W (antibody) | 153 |
| anti-O4 hIgG1 M252Y/T256E/V308P/N434F (antibody) | 182 |
| anti-O4 hIgG1 M252Y/T256E/V308P/N434W (antibody) | 154 |
| anti-O4 hIgG1 M252Y/T256E/V308P/N434Y (antibody) | 124 |
| anti-O4 hIgG1 M252Y/T256F/V308P/N434F (antibody) | 60.4 |
| anti-O4 hIgG1 M252Y/T256F/V308P/N434Y (antibody) | 193 |
| anti-O4 hIgG1 M252Y/T256G/V308P/N434Y (antibody) | 130 |
| anti-O4 hIgG1 M252Y/T256N/V308P/N434Y (antibody) | 174 |
| anti-O4 hIgG1 M252Y/T256P/V308P/N434W (antibody) | 208 |
| anti-O4 hIgG1 M252Y/T256P/V308P/N434Y (antibody) | 132 |
| anti-O4 hIgG1 M252Y/T256Q/V308P/N434Y (antibody) | 286 |
| anti-O4 hIgG1 M252Y/T256R/V308P/N434Y (antibody) | 655 |
| anti-O4 hIgG1 M252Y/T256S/V308P/N434Y (antibody) | 156 |
| anti-O4 hIgG1 M252Y/T256V/V308P/N434W (antibody) | 209 |
| anti-O4 hIgG1 M252Y/T256W/V308P/N434W (antibody) | 147 |
| anti-O4 hIgG1 M252Y/V308P (antibody) | 281 |
| anti-O4 hIgG1 WT (wild type Fc) (antibody) | 122 |

The next lines start with the values.

| Transcytosis Normalized to IAHA at pH 6.0 (ratio to IAHA) | Substance |
| --- | --- |
| 155 | anti-O4 hIgG1 M252Y/T256E/V308P/N434H (antibody) |
| 192 | anti-O4 hIgG1 M252Y/T256H/V308P/N434F (antibody) |
| 126 | anti-O4 hIgG1 M252Y/T256I/V308P/N434Y (antibody) |
| 217 | anti-O4 hIgG1 M252Y/T256L/V308P/N434W (antibody) |
| 303 | anti-O4 hIgG1 M252Y/T256L/V308P/N434Y (antibody) |
| 156 | anti-O4 hIgG1 M252Y/T256Q/V308P/N434W (antibody) |
| 162 | anti-O4 hIgG1 M252Y/T256R/V308P/N434W (antibody) |
| 159 | anti-O4 hIgG1 M252Y/T256S/V308P/N434W (antibody) |
| 98.9 | anti-O4 hIgG1 M252Y/T256V/V308P/N434F (antibody) |
| 183 | anti-O4 hIgG1 M252Y/T256V/V308P/N434Y (antibody) |
| 588 | anti-O4 hIgG1 M252Y/T256W/V308P/N434Y (antibody) |
| 8.35 | anti-O4 hIgG1 M252Y/T256Y/V308P/N434Y (antibody) |
